US20090317397A1 (published 2009)
Residue numbers refer to the chain shown, from its start. Values belong to the molecule of their own block, whether it stands above or below them.

Legend:
[1] = biological target: CTLA4Ig fusion protein (human) (UniProt P16410); test: solid phase binding, 4 nM ^125I-B7Ig on immobilized CTLA4Ig
[2] = biological target: CTLA4Ig fusion protein (human) (UniProt P16410); test: solid phase competition, ^125I-B7Ig (4 nM) on immobilized CTLA4Ig
[3] = biological target: CTLA4Ig fusion protein (human) (UniProt P16410); test: Scatchard plot of the solid phase competition data, immobilized CTLA4Ig
[4] = biological target: T1, B7 antigen (B7-1) stably expressed on CHO cells (UniProt P33681 35-288, limits assumed); test: cell enzyme immunoassay on fixed B7-1+ CHO cells
T1 construct: whole, on cells; also called B7+CHO cells; B7 positive CHO cells
T1 sequence (looked up): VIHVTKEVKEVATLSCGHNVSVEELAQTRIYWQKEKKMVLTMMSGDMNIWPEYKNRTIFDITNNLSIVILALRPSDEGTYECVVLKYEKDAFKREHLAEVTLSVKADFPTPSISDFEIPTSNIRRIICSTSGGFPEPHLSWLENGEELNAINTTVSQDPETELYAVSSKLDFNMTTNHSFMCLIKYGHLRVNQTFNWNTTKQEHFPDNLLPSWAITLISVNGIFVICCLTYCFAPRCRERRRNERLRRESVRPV

- radioactivity bound to wells treated without competitor [1]: 28300 cpm
- IC50 [2]: 175 nM
- Kd [3]: 12 nM
Molecule: B7Ig fusion protein (from UniProt P33681 35-241) (Fc fusion)

- binding result [4]: binds
B1: CTLA4/CD28Ig hybrid fusion protein HS12 (Fc fusion)
chain: NKILVKQSPMLVAYDNAVNLSCKYSYNLFSREFRASLHKGLDSAVEVCVATYMMGNELQVYSKTGFNCDGKLGNESVTFYLQNLYVNQTDIYFCKIELMYPPPYYLGIGNGTQIHVKGKHLCPS
notes: not shown: human IgG1 hinge (Cys to Ser), CH2, CH3; junction printed as DQE

- binding result [4]: binds
B2: CTLA4/CD28Ig hybrid fusion protein HS11 (Fc fusion)
chain: NKILVKQSPMLVAYDNAVNLSCKYASPGKATEFRASLHKGLDSAVEVCVATYMMGNELQVYSKTGFNCDGKLGNESVTFYLQNLYVNQTDIYFCKIELMYPPPYYLGIGNGTQIYVIDPEPCPD
notes: range 1-24;range 33-49;range 58-96; not shown: human IgG1 hinge (Cys to Ser), CH2, CH3; junction printed as DQE

- binding result [4]: binds
B3: CTLA4/CD28Ig hybrid fusion protein HS13 (Fc fusion)
chain: B2 chain with Y115H, I117K, D118G, P119K, E120H, P121L, D124S
notes: as for B1

- binding result [4]: binds
B4: CTLA4/CD28Ig hybrid fusion protein HS6 (Fc fusion)
chain: AMHVAQPAVVLASSRGIASFVCEYSYNLFSREVRVTVLRQADSQVTEVCAATYMMGNELTFLDDSICTGTSSGNQVNLTIQGLRAMDTGLYICKVELMYPPPYYLGIGNGTQIYVIDPEPCPDSD
notes: range 25-32; not shown: human IgG1 hinge (Cys to Ser), CH2, CH3; junction printed as DQE

- % of wild type binding [4]: ~60%
B5: CTLA4/CD28Ig hybrid fusion protein HS8 (Fc fusion)
chain: NKILVKQSPMLVAYDNAVNLSCKYASPGKATEFRASLHKGLDSAVEVCVVYGNYSQQLQVYSKTGFNCDGKLGNESVTFYLQNLYVNQTDIYFCKIELMYPPPYYLGIGNGTQIHVKGKHLCPS
notes: as for B1

- fold less binding than wild type CTLA4Ig [4]: ~5 fold
- increase in binding relative to CD28Ig [4]: ~2.5 orders of magnitude
B6: CTLA4/CD28Ig hybrid fusion protein HS4 (Fc fusion)
chain: NKILVKQSPMLVAYDNAVNLSCKYSYNLFSREFRASLHKGLDSAVEVCVVYGNYSQQLQVYSKTGFNCDGKLGNESVTFYLQNLYVNQTDIYFCKIELMYPPPYYLGIGNGTQIYVIDPEPCPD
notes: range 1-96; also called the CD28Ig analog; not shown: human IgG1 hinge (Cys to Ser), CH2, CH3; junction printed as DQE

- binding result [4]: binds
B7: CTLA4/CD28Ig hybrid fusion protein HS10 (Fc fusion)
chain: B2 chain with A25S, S26Y, P27N, G28L, K29F, A30S, T31R
notes: range 1-49;range 58-96; not shown: human IgG1 hinge (Cys to Ser), CH2, CH3; junction printed as DQE

- % binding activity relative to CTLA4Ig [4]: ~44%
B8: CTLA4/CD28Ig hybrid fusion protein HS7 (Fc fusion)
chain: B5 chain with H115Y, K117I, G118D, K119P, H120E, L121P, S124D
notes: range 1-24;range 33-96; not shown: human IgG1 hinge (Cys to Ser), CH2, CH3; junction printed as DQE

- % of wild type binding [4]: ~2%
B9: CTLA4/CD28Ig hybrid fusion protein HS4-A (Fc fusion)
chain: B5 chain with A25S, S26Y, P27N, G28L, K29F, A30S, T31R
notes: as for B1

- binding result [4]: binds
B10: CTLA4/CD28Ig hybrid fusion protein HS2 (Fc fusion)
chain: AMHVAQPAVVLASSRGIASFVCKYSYNLFSREFRASLHKGLDSAVEVCVVYGNYSQQLQVYSKTGFNCDGKLGNESVTFYLQNLYVNQTDIYFCKIELMYPPPYYLGIGNGTQIYVIDPEPCPDSD
notes: range 23-96; not shown: human IgG1 hinge (Cys to Ser), CH2, CH3; junction printed as DQE

- binding result [4]: binds
B11: CTLA4/CD28Ig hybrid fusion protein HS9 (Fc fusion)
chain: NKILVKQSPMLVAYDNAVNLSCKYASPGKATEFRASLHKGLDSAVEVCVVYGNYSQQLQVYSKTGFNCDGKLGNESVTFYLQNLYVNQTDIYFCKIEVMYPPPYLDNEKSNGTIIYVIDPEPCPD
notes: range 1-24;range 33-115; not shown: human IgG1 hinge (Cys to Ser), CH2, CH3; junction printed as DQE

- binding result [4]: binds
B12: CTLA4/CD28Ig hybrid fusion protein HS4-B (Fc fusion)
chain: B11 chain with A25S, S26Y, P27N, G28L, K29F, A30S, T31R
notes: range 1-115; not shown: human IgG1 hinge (Cys to Ser), CH2, CH3; junction printed as DQE

- binding result [4]: binds
B13: CTLA4/CD28Ig hybrid fusion protein HS5 (Fc fusion)
chain: B11 chain with Y116H, I118K, D119G, P120K, E121H, P122L, D125S
notes: CD28Ig itself runs to about 134; not shown: human IgG1 hinge (Cys to Ser), CH2, CH3; junction printed as DQE
